The labels stand for the following.
B1: Control peptide PN-2519 (peptide)
peptide: FD[Cha]DIHLL[Phe(4-F)]LPTEWEK[Gla]KNEE
notes: Printed FD(Cha)DIHLL(4F)LPTEWEK(Cla)KNEE; tested in a linear form
B2: Control peptide CA11 (peptide)
peptide: NQQLIEEIIQILHKIFEIL
notes: published peptide (Kobayashi et al. 2011) synthesized by the inventors; whether its termini were protected is not clear
B3: Control peptide PN-1974 (peptide)
peptide: H-FD[hLeu]DIHLLFLPTEWEKDKNEE-OH
SMILES: CC[C@H](C)[C@H](NC(=O)[C@H](CC(=O)O)NC(=O)[C@H](CCC(C)C)NC(=O)[C@H](CC(=O)O)NC(=O)[C@@H](N)Cc1ccccc1)C(=O)N[C@@H](Cc1c[nH]cn1)C(=O)N[C@@H](CC(C)C)C(=O)N[C@@H](CC(C)C)C(=O)N[C@@H](Cc1ccccc1)C(=O)N[C@@H](CC(C)C)C(=O)N1CCC[C@H]1C(=O)N[C@H](C(=O)N[C@@H](CCC(=O)O)C(=O)N[C@@H](Cc1c[nH]c2ccccc12)C(=O)N[C@@H](CCC(=O)O)C(=O)N[C@@H](CCCCN)C(=O)N[C@@H](CC(=O)O)C(=O)N[C@@H](CCCCN)C(=O)N[C@@H](CC(N)=O)C(=O)N[C@@H](CCC(=O)O)C(=O)N[C@@H](CCC(=O)O)C(=O)O)[C@@H](C)O
notes: linear, termini not protected
B4: Control peptide C1 (peptide)
peptide: SVKDLQHGLRHVVG
notes: homologous to peptide 9 without its mutations (two unmutated fragments of IL-6R); whether its termini were protected is not clear
B5: Control peptide RA07 (peptide)
peptide: INTLLSEINSILLDIISLL
notes: as for B2
B6: Peptide 9 (peptide)
peptide: SVRDLLRRMCHIVG
notes: linear, N and C termini not protected; also called 9 (parent); parent peptide 9
B7: Peptide 33 (peptide)
peptide: SVRDLIRMMCHIVG
notes: termini not protected; also called variant 33

Square brackets hold non-standard residues; d marks the D form. Ends that are not written are not given here. Phe(4-F) = N[C@@H](Cc1ccc(F)cc1)C(=O)O; Gla = N[C@@H](CC(C(=O)O)C(=O)O)C(=O)O; Cha = N[C@@H](CC1CCCCC1)C(=O)O; hLeu = CC(C)CC[C@H](N)C(=O)O

For one experiment, the target named is T1, Biotinylated recombinant human IL-6 (human, UniProt P05231 30-212, biotinylated (sites not given)).
T1 construct: In the cell bioassay IL-6 (0.5 nM) was used in solution; also called Interleukin-6; IL-6-Biotin
The experiment is described as follows: SPR (Biacore), IL-6 on chip.
For B1, the binding result is recorded as “no binding (tested: 20 µM highest peptide concentration)”. For Ac-ATIRDLLSHNCHIVG-NH2 [Peptide 52], the binding result is “no binding (tested: 20 µM highest peptide concentration)”. Usually Kd stands for the concentration at which binding is half-saturated. For the molecule Ac-SVRDLIRMMKVCVG-NH2 [Peptide 64], the Kd was 1390 nM. As for Ac-ATIRDLLRRMKVCVG-NH2 [Peptide 53], the Kd stood at 436 nM. Still for that read-out and setting: as for B2, the figure is 50800 nM. As to Ac-FAFRDLLSHNCHIVG-NH2 [Peptide 59], the binding result is listed as “no binding (tested: 20 µM highest peptide concentration)”.

Ac-FSFRDLLRMMCHIVG-NH2 [Peptide 80]: the Kd was determined as 249 nM. Still for that read-out and setting: as for Ac-FSVRDLLRRMCHIVG-NH2 [Peptide 61], the figure is 144 nM. On the same count and under the same terms, next, Ac-FAFRDLIRMMKHIVG-NH2 [Peptide 77]: 405 nM; Ac-FAFRDLIRMMKVIVG-NH2 [Peptide 76]: 1300 nM. With Ac-ASVRDLLRRMCHIVG-NH2 [Peptide 54], the Kd amounted to 422 nM. With Ac-FAFRDLIRMMCHIVG-NH2 (also called variant 58) [Peptide 58], the Kd is 71 nM. The same measure, in the same setting: next, Ac-FSVRDLIRMMKVCVG-NH2 [Peptide 87]: 47 nM; Ac-FSFRDLLRMMKVIVG-NH2 [Peptide 81]: 1270 nM. Turning to Ac-FSFRDLIRMMKVCVG-NH2 [Peptide 93], the Kd was determined as 265 nM. On the same count and under the same terms, as for Ac-FAFRDLIRMMCVIVG-NH2 [Peptide 78], the figure is 1490 nM; as for Ac-FAFRDLLRMMCHIVG-NH2 [Peptide 75], 132 nM; as for B3, 61 nM. In the case of B4, the binding result was “no binding (tested: 20 µM highest peptide concentration)”. For the molecule Ac-TIRDLLRMMKVIVG-NH2 [Peptide 84], the equilibrium dissociation constant (Kd) came out at 565 nM. As to Ac-SVRDLLRRMKVIVG-NH2 [Peptide 73], the Kd turned out to be 1130 nM.

With Ac-SVRDLIRRMCHIVG-NH2 [Peptide 68], the Kd was found to be 724 nM.

Regarding Ac-SFRDLLRRMCHIVG-NH2 [Peptide 63], the Kd was 162 nM. Same read-out and setting: next, Ac-TVRDLLRRMCHIVG-NH2 [Peptide 55]: 224 nM. On the same count and under the same terms, next, Ac-SVRDLLRRMCVIVG-NH2 [Peptide 66]: 283 nM.

For the molecule Ac-SVRDLLRRMKHIVG-NH2 [Peptide 65], the Kd amounted to 150 nM.

On to Ac-AVRDLLRRMCHIVG-NH2 [Peptide 62], for which the Kd was found to be 519 nM.

In the case of Ac-SVRDLLRRMCHCVG-NH2 (cysteine pairing not given here) [Peptide 67], the binding result is on record as “no binding (tested: 20 µM highest peptide concentration)”. For the molecule Ac-SVRDLLRMMCHIVG-NH2 [Peptide 69], the Kd came to 172 nM. For the molecule Ac-SIRDLLRRMCHIVG-NH2 [Peptide 56], the Kd was 305 nM. As to Ac-FAFRDLLRRMKVCVG-NH2 [Peptide 60], the binding result is listed as “no binding (tested: 20 µM highest peptide concentration)”.

Take B5: the binding result is “no binding (tested: 20 µM highest peptide concentration)”.

On to Ac-ATIRDLIRMMCHIVG-NH2 (also called peptide variant 51) [Peptide 51], for which the Kd was 128 nM.

A further experiment concerns the target T1, Biotinylated recombinant human IL-6. The experiment is described as follows: SPR (Biacore), IL-6 on chip. The source holds these as a separate data set. On the technique in general: In SPR one partner is held on a chip, and binding of the other changes the refractive index at the surface.
Take FAFRDLLRRMCHIVG (termini not protected) [Peptide 45]: the Kd was 92 nM. For B6, the Kd was found to be 2580 nM. Turning to SVRDLLRRMKVCVG (termini not protected) [Peptide 27], the Kd was determined as 58 nM. For the molecule B7, the Kd came out at 545 nM. On the same count and under the same terms, next, ETIRDLLRRMCHIVG (termini not protected) [Peptide 24]: 119 nM; ATIRDLLRRMCHIVG (termini not protected) [Peptide 38]: 54 nM; ACMDLLRRMCHIVG (termini not protected) [Peptide 28]: 2730 nM.

(Values after patent US20250277208A1, “Method of Peptide Library Construction and Peptides Thereof” (Alcamena Stem Cell Therapeutics, LLC, priority 2024, published 2025).)
